Measurements as given in patent US20220378931A1 (Eli Lilly, published 2022).
Read-outs that look alike come from different tables or passages of the source.

Columns and labels:
[1] = target: T1, human insulin receptor isoform B with C-terminal C9 tag (human, UniProt P06213 28-1382); test: 125I-insulin competition SPA, hIR-B membranes, 0.1% HSA
T1 construct: membranes of stably transfected HEK293 cells; also called hIR-B; human IR-B
Protocol: (§1) The assays are performed with a SPA method using polyvinyltoluene (PVT) wheat germ agglutinin-coupled SPA beads (Perkin Elmer). Assay buffer contains 50 mM Tris-HCl, pH 7.5, 150 mM NaCl and either A) 0.1% w/v fatty-acid free BSA; B) 0.1% w/v fatty-acid free human serum albumin (HSA); C) 0.1% w/v rat serum albumin (RSA); or D) 0.001% Nonidet P-40 Substitute (NP-40, Roche Diagnostics). Ten-point concentration response curves using three-fold serial dilutions of test samples or controls are prepared in Assay Buffer using a Freedom/Evo robot (Tecan).
(§2) Percent specific inhibition (y-axis) is plotted versus the log concentration of compound (x-axis). […] Reported Ki values are shown as the geometric mean with the standard error (Delta Method Standard Error) and the number of independent replicate determinations used to calculate the geometric mean indicated by n.

[2] = target: T2, human insulin receptor isoform A with C-terminal C9 tag (human, UniProt P06213 28-1382); test: 125I-insulin competition SPA, hIR-A membranes, 0.1% HSA
T2 construct: membranes of stably transfected HEK293 cells; also called hIR-A; human IR-A
Protocol: as §1, §2

cow serum albumin [3] = target: T3, cow serum albumin (cow, UniProt P02769 25-607); test: SPR (Biacore 8K), albumin immobilised, 25 C, steady-state affinity
T3 construct: bought protein, amine-coupled to a CM5 chip; also called Cow SA; Bovine SA
Protocol: (§3) Immobilization of serum albumin to a Series S Sensor Chip CM5 surface is performed according to the manufacturer's instructions (Amine Coupling Kit BR-1000-50). Briefly, carboxyl groups on the sensor chip surfaces (flow cell 1 and 2) are activated by injecting 70 μL of a mixture containing 75 mg/ml EDC and 11.5 mg/ml NHS at 10 μL/min. Human, cynomolgus monkey, mouse, rat, pig, dog, cow and rabbit serum albumin are diluted in 10 mM NaOAc pH 4.0 (BR-1003-49) at 1, 1, 3, 1, 1, 1, 1 and 1 μg/mL and then injected over the activated chip surfaces (flow cell 2, […]) at 10 μL/min for 90 sec (human, mouse, rat, pig and cow serum albumin are obtained from Sigma Aldrich (St. Louis, Mo.); cynomolgus monkey serum albumin is obtained from Holzel Diagnostika (Cologne, Germany); dog serum albumin is obtained from Molecular Innovations (Novi, Mich.); and rabbit serum albumin is obtained from Fitzgerald Industries International (Acton, Mass.)). […] Excess reactive groups on the surfaces (flow cell 1 and 2) are deactivated by injecting 70 μL of 1 M ETA HCl—NaOH pH 8.5 at 10 μL/min.
(§4) 150 μL of sample is individually injecting sequentially across the immobilized serum albumins surface and then dissociates for 600 sec at 50 μL/min flow rate at 25° C. The surface is regenerated by injecting 10 mM glycine-HCl pH 1.5 (BR-1003-54) at 50 μL/min for 100 sec. The resulting sensorgrams are analyzed using Biacore 8K Insight Evaluation Software (version 2.0.15.12933) 1:1 binding kinetics or steady-state affinity model fitting to calculate the binding kinetic parameter association rate (ka), dissociation rate (kd), and equilibrium dissociation constant (KD)

[4] = target: T1, human insulin receptor isoform B with …; test: 125I-insulin competition SPA, hIR-B membranes, 0.001% NP-40
Protocol: as §1, §2

rabbit serum albumin = target: T4, rabbit serum albumin (rabbit, UniProt P49065 25-608); test: SPR (Biacore 8K), albumin immobilised, 25 C
T4 construct: bought protein, amine-coupled to a CM5 chip; also called Rabbit SA
Protocol: as §3, §4

[5] = target: T1, human insulin receptor isoform B with …; test: 125I-insulin competition SPA, hIR-B membranes, 0.1% BSA
Protocol: as §1, §2

[6] = target: T2, human insulin receptor isoform A with …; test: 125I-insulin competition SPA, hIR-A membranes, 0.1% BSA
Protocol: as §1, §2

[7] = target: T2, human insulin receptor isoform A with …; test: 125I-insulin competition SPA, hIR-A membranes, 0.001% NP-40
Protocol: as §1, §2

pig serum albumin = target: T5, pig serum albumin (pig, UniProt P08835 25-607); test: SPR (Biacore 8K), albumin immobilised, 25 C, 1:1 kinetics
T5 construct: bought protein, amine-coupled to a CM5 chip; also called Pig SA
Protocol: as §3, §4

mouse serum albumin = target: T6, mouse serum albumin (mouse, UniProt P07724 25-608); test: as above
T6 construct: bought protein, amine-coupled to a CM5 chip; also called Mouse SA
Protocol: as §3, §4

human serum albumin = target: T7, human serum albumin (human, UniProt P02768 25-609); test: as above
T7 construct: bought protein, amine-coupled to a CM5 chip; also called Human SA; HSA
Protocol: as §3, §4

rat serum albumin = target: T8, rat serum albumin (rat, UniProt P02770 25-608); test: as above
T8 construct: bought protein, amine-coupled to a CM5 chip; also called Rat SA; RSA
Protocol: as §3, §4

[8] = target: T9, cynomolgus monkey serum albumin (cynomolgus monkey, UniProt A2V9Z4 25-608); test: as above
T9 construct: bought protein, amine-coupled to a CM5 chip; also called Cyno SA
Protocol: as §3, §4

dog serum albumin = target: T10, dog serum albumin (dog, UniProt P49822 25-608); test: as above
T10 construct: bought protein, amine-coupled to a CM5 chip; also called Dog SA
Protocol: as §3, §4

cow serum albumin [9] = target: T3, cow serum albumin; test: SPR (Biacore 8K), albumin immobilised, 25 C, steady-state affinity; remark: listed apart in the source

B1: INS Analog 29 (other)
chain: FVSQHLCGSHLVEALRLVCGERGFHYTPKTGGGGGGGIVEQCCHSICSLYQLENYCGGGGGQGGGGQGGGGQGGGGQGGGGQEVQLLESGGGLVQPGGSLRLSCAASGRYIDETAVAWFRQAPGKEREFVAGIGGGVDITYYADSVKGRFTISRDNSKNTLYLQMNSLRPEDTAVYYCAARPGRPLITSKVADLYPYWGQGTLVTVSSPP
notes: single-chain insulin B-L2-A-L1-VHH fusion; also called Ex. 29
Ki [1]: 38.1 nM
Ki [2]: 28.2 nM
Kd (cow serum albumin [3]): 380 nM
Ki [4]: 62.5 nM
binding result (rabbit serum albumin): no binding (tested: up to 1000 nM)
Ki [5]: 124 nM
Ki [6]: 179 nM
Ki [7]: 34 nM
Kd (pig serum albumin): 86 nM
koff (pig serum albumin): 0.013 s⁻¹
kon (pig serum albumin): 150000 M⁻¹ s⁻¹
Kd (mouse serum albumin): 48 nM
koff (mouse serum albumin): 0.0087 s⁻¹
kon (mouse serum albumin): 180000 M⁻¹ s⁻¹
Kd (human serum albumin): 0.74 nM
koff (human serum albumin): 0.00013 s⁻¹
kon (human serum albumin): 180000 M⁻¹ s⁻¹
Kd (rat serum albumin): 32 nM
koff (rat serum albumin): 0.0065 s⁻¹
kon (rat serum albumin): 200000 M⁻¹ s⁻¹
Kd [8]: 4.4 nM
koff [8]: 0.00078 s⁻¹
kon [8]: 180000 M⁻¹ s⁻¹
Kd (dog serum albumin): 16 nM
koff (dog serum albumin): 0.0032 s⁻¹
kon (dog serum albumin): 190000 M⁻¹ s⁻¹

B2: INS Analog 25 (other)
chain: FVSQHLCGSHLVEALRLVCGERGFFYTPKTGGGGGGGIVEQCCTSICSLYQLENYCGGGGGQGGGGQGGGGQGGGGQGGGGQEVQLLESGGGLVQPGGSLRLSCAASGRYIDETAVAWFRQAPGKEREFVAGIGGGVDITYYADSVKGRFTISRDNSKNTLYLQMNSLRPEDTAVYYCAARPGRPLITSKVADLYPYWGQGTLVTVSSPP
notes: single-chain insulin B-L2-A-L1-VHH fusion; also called Ex. 25
Ki [1]: 279 nM
Ki [2]: 125 nM
Ki [4]: 641 nM
binding result (rabbit serum albumin): no binding (tested: up to 1000 nM)
Kd (cow serum albumin [9]): 390 nM
Ki [5]: 790 nM
Ki [6]: 630 nM
Ki [7]: 174 nM
Kd (pig serum albumin): 90 nM
koff (pig serum albumin): 0.011 s⁻¹
kon (pig serum albumin): 130000 M⁻¹ s⁻¹
Kd (mouse serum albumin): 42 nM
koff (mouse serum albumin): 0.0092 s⁻¹
kon (mouse serum albumin): 220000 M⁻¹ s⁻¹
Kd (human serum albumin): 0.32 nM
koff (human serum albumin): 8.4e-05 s⁻¹
kon (human serum albumin): 260000 M⁻¹ s⁻¹
Kd (rat serum albumin): 34 nM
koff (rat serum albumin): 0.0066 s⁻¹
kon (rat serum albumin): 200000 M⁻¹ s⁻¹
Kd [8]: 3.5 nM
koff [8]: 0.00079 s⁻¹
kon [8]: 230000 M⁻¹ s⁻¹
Kd (dog serum albumin): 16 nM
koff (dog serum albumin): 0.0033 s⁻¹
kon (dog serum albumin): 200000 M⁻¹ s⁻¹

B3: INS Analog 30 (other)
chain: FVSQHLCGSHLVEALRLVCGERGFHYTPKTGGGGGGGIVEQCCHSICSLYQLENYCGPGPQPGPQPGPQPGPQPGPQPGPQPGPQPGPQEVQLLESGGGLVQPGGSLRLSCAASGRYIDETAVAWFRQAPGKEREFVAGIGGGVDITYYADSVKGRFTISRDNSKNTLYLQMNSLRPEDTAVYYCAARPGRPLITSKVADLYPYWGQGTLVTVSSPP
notes: single-chain insulin B-L2-A-L1-VHH fusion; also called Ex. 30
Ki [1]: 24.5 nM
Ki [2]: 17.2 nM
Kd (cow serum albumin [3]): 370 nM
Ki [4]: 60 nM
binding result (rabbit serum albumin): no binding (tested: up to 1000 nM)
Ki [5]: 100 nM
Ki [6]: 127 nM
Ki [7]: 49.3 nM
Kd (pig serum albumin): 80 nM
koff (pig serum albumin): 0.0092 s⁻¹
kon (pig serum albumin): 110000 M⁻¹ s⁻¹
Kd (mouse serum albumin): 39 nM
koff (mouse serum albumin): 0.0071 s⁻¹
kon (mouse serum albumin): 190000 M⁻¹ s⁻¹
Kd (human serum albumin): 0.73 nM
koff (human serum albumin): 0.00011 s⁻¹
kon (human serum albumin): 160000 M⁻¹ s⁻¹
Kd (rat serum albumin): 30 nM
koff (rat serum albumin): 0.0051 s⁻¹
kon (rat serum albumin): 170000 M⁻¹ s⁻¹
Kd [8]: 4.3 nM
koff [8]: 0.00069 s⁻¹
kon [8]: 160000 M⁻¹ s⁻¹
Kd (dog serum albumin): 13 nM
koff (dog serum albumin): 0.0022 s⁻¹
kon (dog serum albumin): 170000 M⁻¹ s⁻¹

B4: INS Analog 26 (other)
chain: FVSQHLCGSHLVEALRLVCGERGFFYTPKTGGGGGGGIVEQCCTSICSLYQLENYCGPGPQPGPQPGPQPGPQPGPQPGPQPGPQPGPQEVQLLESGGGLVQPGGSLRLSCAASGRYIDETAVAWFRQAPGKEREFVAGIGGGVDITYYADSVKGRFTISRDNSKNTLYLQMNSLRPEDTAVYYCAARPGRPLITSKVADLYPYWGQGTLVTVSSPP
notes: single-chain insulin B-L2-A-L1-VHH fusion; also called Ex. 26
Ki [1]: 105 nM
Ki [2]: 40.6 nM
Kd (cow serum albumin [3]): 400 nM
Ki [4]: 214 nM
binding result (rabbit serum albumin): no binding (tested: up to 1000 nM)
Ki [5]: 405 nM
Ki [6]: 389 nM
Ki [7]: 105 nM
Kd (pig serum albumin): 87 nM
koff (pig serum albumin): 0.0098 s⁻¹
kon (pig serum albumin): 110000 M⁻¹ s⁻¹
Kd (mouse serum albumin): 35 nM
koff (mouse serum albumin): 0.0069 s⁻¹
kon (mouse serum albumin): 200000 M⁻¹ s⁻¹
Kd (human serum albumin): 0.49 nM
koff (human serum albumin): 9.4e-05 s⁻¹
kon (human serum albumin): 190000 M⁻¹ s⁻¹
Kd (rat serum albumin): 32 nM
koff (rat serum albumin): 0.0056 s⁻¹
kon (rat serum albumin): 170000 M⁻¹ s⁻¹
Kd [8]: 3.9 nM
koff [8]: 0.00069 s⁻¹
kon [8]: 180000 M⁻¹ s⁻¹
Kd (dog serum albumin): 13 nM
koff (dog serum albumin): 0.0023 s⁻¹
kon (dog serum albumin): 170000 M⁻¹ s⁻¹
